Reference: article PMC3003327
pKd: −log10 of the molar value.

Tests used:
[1] = molecular target: actin filaments (F-actin) of Acanthamoeba castellani cytoplasmic actin (Acanthamoeba castellani); test: single-molecule TIRF microscopy
[2] = molecular target: actin filaments (F-actin) of Acanthamoeba castellani cytoplasmic actin (Acanthamoeba castellani); test: single-filament TIRF elongation rate against VASP concentration

dwell time at the growing barbed end with 1 µM actin [1] [s]	dwell time τ1 (single exponential fit without the static molecules) [1] [s]	dwell time τ1 on filament regions with p(ADP-Pi) < 0.5 [1] [s]	dwell time τ1 on filament regions with p(ADP-Pi) > 0.5 [1] [s]	dwell time τ1 on the sides of growing filaments [1] [s]	dwell time τ2 (static binding; double exponential fit of all interactions) [1] [s]	pKd [2]	Substance
1.45	0.44	1	0.93	0.22	4.99		Cy3-KCK-hVASP^1-380aa (C7S, C64S, C334A) (from UniProt P50552 1-380) (natural protein)
						8.04	human VASP^1-380aa, unlabeled wild type (untagged hVASP^1-380aa) (from UniProt P50552 1-380) (natural protein)
